In patent US6897197 (ALBERT EINSTEIN COLLEGE OF MEDICINE OF YESHIVA UNIVERSITY, dated 2005):

Key:
[1] = biological target: T1, human MDM2, full length (CMV driven expression construct pCHDM1A) (human, UniProt Q00987 1-491); test: low stringency co-immunoprecipitation (anti-FLAG IP, anti-MDM2 Western blot), 293T cells transfected with MDM2 and p19FLAG
T1 construct: Expressed in transfected cells; also called HDM-2
Protocol: (§1) For immunoprecipitations, subconfluent 293T cells were transfected with 3 µg each of the appropriate expression constructs shown in FIG. 3, and 80 µg of Lipofectamine reagent (Gibco BRL). […] Untransfected 3T3-DM cells were lysed in a low stringency buffer as above.

[2] = biological target: T2, endogenous MDM2 of untransfected 3T3DM cells (UniProt P23804 1-489); test: anti-p19^ARF immunoprecipitation, anti-MDM2 Western blot, untransfected 3T3DM cells
T2 construct: 3T3DM is a mouse cell line; Detected with antibody 2A10; also called p90/p85
Protocol: as §1

T2 sequence (P23804 whole entry): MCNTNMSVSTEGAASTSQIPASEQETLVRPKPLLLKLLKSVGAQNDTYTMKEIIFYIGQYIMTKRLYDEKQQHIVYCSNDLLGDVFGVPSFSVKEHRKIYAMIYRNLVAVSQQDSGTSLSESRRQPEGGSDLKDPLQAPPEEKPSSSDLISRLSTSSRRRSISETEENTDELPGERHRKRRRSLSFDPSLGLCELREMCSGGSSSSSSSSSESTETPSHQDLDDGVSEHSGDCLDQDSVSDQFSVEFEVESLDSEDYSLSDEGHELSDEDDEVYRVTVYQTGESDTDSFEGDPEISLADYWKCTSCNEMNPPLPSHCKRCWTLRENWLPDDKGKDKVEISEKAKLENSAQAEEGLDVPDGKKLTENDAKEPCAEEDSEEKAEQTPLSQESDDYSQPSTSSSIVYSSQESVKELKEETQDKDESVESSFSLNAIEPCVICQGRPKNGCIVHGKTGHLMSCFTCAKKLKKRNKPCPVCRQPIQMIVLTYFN
T1 sequence (Q00987 whole entry): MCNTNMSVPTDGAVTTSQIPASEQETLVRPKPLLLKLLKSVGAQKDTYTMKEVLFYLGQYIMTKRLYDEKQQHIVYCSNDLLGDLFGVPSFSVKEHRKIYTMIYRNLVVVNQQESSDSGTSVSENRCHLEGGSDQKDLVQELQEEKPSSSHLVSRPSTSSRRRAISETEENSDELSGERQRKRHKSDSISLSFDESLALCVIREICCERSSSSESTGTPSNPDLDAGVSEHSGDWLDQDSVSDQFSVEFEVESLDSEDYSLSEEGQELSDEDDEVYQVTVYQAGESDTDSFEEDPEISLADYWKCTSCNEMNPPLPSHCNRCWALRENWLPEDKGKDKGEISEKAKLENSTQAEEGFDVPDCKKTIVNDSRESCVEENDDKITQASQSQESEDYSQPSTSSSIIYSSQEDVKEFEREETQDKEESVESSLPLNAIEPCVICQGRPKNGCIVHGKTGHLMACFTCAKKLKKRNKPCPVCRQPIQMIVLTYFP

B1: FLAG epitope-tagged p19^ARF protein (other, mouse, UniProt Q64364 1-169, looked up, not shown: small tags and cut ends)
chain: MGRRFLVTVRIQRAGRPLQERVFLVKFVRSRRPRTASCALAFVNMLLRLERILRRGPHRNPGPGDDDGQRSRSSSSAQLRCRFELRGPHYLLPPGARRSAGRLPGHAGGAARVRGSAGCARCLGSPAARLGPRAGTSRHRAIFAFRWVLFVFRWVVFVYRWERRPDRRA
notes: Expressed from pcDNA in transfected 293T, SAOS2 or HeLa cells; also called p19^FLAG; p19FLAG
- binding result [1]: binds

B2: endogenous p19^ARF of untransfected 3T3DM cells (other, UniProt Q64364 1-169, looked up)
chain: MGRRFLVTVRIQRAGRPLQERVFLVKFVRSRRPRTASCALAFVNMLLRLERILRRGPHRNPGPGDDDGQRSRSSSSAQLRCRFELRGPHYLLPPGARRSAGRLPGHAGGAARVRGSAGCARCLGSPAARLGPRAGTSRHRAIFAFRWVLFVFRWVVFVYRWERRPDRRA
notes: Immunoprecipitated with rabbit polyclonal anti-p19^ARF antiserum
- binding result [2]: binds
